Broadly, the Tm is the temperature at the midpoint of the melting transition.

Results on 13 variants are retold here after FireProtDB (doi:10.1093/jb/mvq079).

B1: Divalent-cation tolerance protein CutA, P69488 (parent)
chain: MLDEKSSNTASVVVLCTAPDEATAQDLAAKVLAEKLAACATLIPGATSLYYWEGKLEQEYEVQMILKTTVSHQQALLECLKSHHPYQTPELLVLPVTHGDTDYLSWLNASLR

This data set covers variants of B1. To be noted: Escherichia coli (strain K12), structure 3X3U, whole UniProt chain shown; for ddG of mutation (higher = less stable) / denaturant midpoint (higher = more stable): pH 8, 37 °C, GdnHCl, CD, Tris-HCl, reversible: yes; for Tm / change of melting temperature, mutant - wild type (higher = more stable): pH 9, Thermal, DSC, glycine Buffer, transition: 2, reversible: no.

Consider MLDEKSSNTASVVVLCTAPDEATAQDLAAKVLAEKLAACATLIPGATSLYYWEGKLEQEYTVQMILKTTVSHQQALLECLKSHHPYQTPELLVLPVTHGDTDYLSWLNASLR [E61T], for which the “ddG of mutation (higher = less stable)” value was -13.2 kJ/mol; the “denaturant midpoint (higher = more stable)” value (shortened to “denaturant midpoint”) came to 2.99 M; the midpoint of thermal melting (Tm) stood at 98.6 °C; the “change of melting temperature, mutant - wild type (higher = more stable)” value (shortened to “change of melting temperature, mutant”) came to 8.7 °C.
For the variant MLDEKSSNTASVVVLCTAPDEATAQDLAAKVLAEKLAACATLIPGATSLYYWEGKLEQEYVVQMILKTTVSHQQALLECLKSHHPYQTPELLVLPVTHGDTDYLSWLNASLR [E61V], the “ddG of mutation (higher = less stable)” value is -14.3 kJ/mol; the “denaturant midpoint” value came to 3.29 M; the Tm was found to be 103 °C; the “change of melting temperature, mutant” value came out at 13.5 °C.
Consider MLDEKSSNTASVVVLCTAPDEATAQDLAAKVLAEKLAACATLIPGATSLYYWEGKLEQEYEVQMILKTTVSHVQALLECLKSHHPYQTPELLVLPVTHGDTDYLSWLNASLR [Q73V], for which the “denaturant midpoint” value came to 3.4 M; the melting temperature (Tm) was 94 °C; the “change of melting temperature, mutant” value is 4.1 °C.
Turning to MLDEKSSNTASVVVLCTAPDEATAQDLAAKVLAEKLAACATLIPGATSLYYWEGKLEQKYEVQMILKTTVSHQQALLECLKSHHPYQTPELLVLPVTHGDTDYLSWLNASLR [E59K], the “ddG of mutation (higher = less stable)” value was -16.4 kJ/mol; the “denaturant midpoint” value was 3.01 M; the melting temperature (Tm) was determined as 104 °C; the “change of melting temperature, mutant” value amounted to 14.3 °C.
The matching figures for MLDEKSSNTASVVVLCTAPDEATAQDLAAKVLAEKLAACATLIPGATSLYYWEGKLEQLYEVQMILKTTVSHQQALLECLKSHHPYQTPELLVLPVTHGDTDYLSWLNASLR [E59L]: -12.1 kJ/mol, 2.96 M, 100 °C and 10.3 °C.
With MLDEKSSNTAVVVVLCTAPDEATAQDLAAKVLAEKLAACATLIPGATSLYYWEGKLEQEYTVQMILKTTVSHQQALLECLKSHHPYQTPELLVLPVTHGDTDYLSWLNASLR [S11V E61T], the “denaturant midpoint” value is 3.48 M; the Tm was 112 °C; the “change of melting temperature, mutant” value amounted to 22.4 °C.
The matching figures for MLDEKSSNTAVVVVLCTAPDEATAQDLAAKVLAEKLAACATLIPGATSLYYWEGKLEQEYVVQMILKTTVSHQQALLECLKSHHPYQTPELLVLPVTHGDTDYLSWLNASLR [S11V E61V]: 3.8 M, 114 °C and 23.6 °C.
On to MLDEKSSNTAVVVVLCTAPDEATAQDLAAKVLAEKLAACATLIPGATSLYYWEGKLEQKYTVQMILKTTVSHQQALLECLKSHHPYQTPELLVLPVTHGDTDYLSWLNASLR [S11V E59K E61T], for which the “denaturant midpoint” value came to 3.48 M.
Consider MLDEKSSNTAVVVVLCTAPDEATAQDLAAKVLAEKLAACATLIPGATSLYYWEGKLEQEYEVQMILKTTVSHQQALLECLKSHHPYQTPELLVLPVTHGDTDYLSWLNASLR [S11V], for which the “denaturant midpoint” value worked out at 3.31 M; the Tm is 105 °C; the “change of melting temperature, mutant” value was 15.1 °C.
In the case of MLDEKSSNTASVVVLCTAPDEATAQDLAAKVLAEKLAACATLIPGATSLYYWEGKLEQEYEVQMILKTTVSHQQALLECLKSHHPDQTPELLVLPVTHGDTDYLSWLNASLR [Y86D], the “ddG of mutation (higher = less stable)” value amounted to 26.7 kJ/mol; the “denaturant midpoint” value came to 2.67 M; the melting temperature (Tm) came out at 76.8 °C; the “change of melting temperature, mutant” value is -13.1 °C.
With MLDEKSSNTAVVVVLCTAPDEATAQDLAAKVLAEKLAACATLIPGATSLYYWEGKLEQEYTVQMILKTTVSHVQALLECLKSHHPYQTPELLVLPVTHGDTDYLSWLNASLR [S11V E61T Q73V], the “denaturant midpoint” value came out at 4.2 M; the Tm is 114 °C; the “change of melting temperature, mutant” value is 23.7 °C.
For the variant MLDEKSSNTASVVVLCTAPDEATAQDLAAKVLAEKLAACATLIPGATSLYYWEGKLEQKYVVQMILKTTVSHQQALLECLKSHHPYQTPELLVLPVTHGDTDYLSWLNASLR [E59K E61V], the “ddG of mutation (higher = less stable)” value was -22.9 kJ/mol; the “denaturant midpoint” value is 3.24 M; the midpoint of thermal melting (Tm) stood at 104 °C; the “change of melting temperature, mutant” value stood at 14.4 °C.
For MLDEKSSNTAVVVVLCTAPDEATAQDLAAKVLAEKLAACATLIPGATSLYYWEGKLEQEYVVQMILKTTVSHVQALLECLKSHHPYQTPELLVLPVTHGDTDYLSWLNASLR [S11V E61V Q73V], the “denaturant midpoint” value came out at 4.67 M.
